Results reported in patent publication US20190105403A1 (STCUBE, published 2019).

T1: human PD-L1 4NQ (N35Q/N192Q/N200Q/N219Q), fully unglycosylated variant, expressed on BT549 cells (human, UniProt Q9NZQ7 19-290)
T1 construct: In the Western blots the protein was in cell lysate; also called 4NQ PD-L1; unglycosylated PD-L1 4NQ mutant
T1 chain: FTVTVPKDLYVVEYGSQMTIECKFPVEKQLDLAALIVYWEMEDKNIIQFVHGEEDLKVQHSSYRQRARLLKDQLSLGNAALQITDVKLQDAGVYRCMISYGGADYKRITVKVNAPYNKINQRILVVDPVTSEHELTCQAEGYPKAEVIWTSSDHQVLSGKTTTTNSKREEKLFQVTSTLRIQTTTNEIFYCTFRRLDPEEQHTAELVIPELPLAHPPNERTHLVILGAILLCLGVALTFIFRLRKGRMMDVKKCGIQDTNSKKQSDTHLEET

B1: STM115 MAb (antibody, V domains shown)
VH: EVMLVESGGALVEPGGSLKLSCVASGFTFSNYAMSWVRQTPERRLEWVASITNGGTYTYYPDSVKGRFTISRDNARNTLYLQMSSLRSEDTAMYFCARPLHYYGGSHFDYWGQGTTLTVSS
VL: EIVLTQSPALMAASPGEKVTITCSVSSSISSNTLHWYQQKSEISPKPWIYGTSNLASGVPVRFSGSGSGTSYSLTISSMEAEDAATYYCQQWSSYPLTFGGGTKLEIK
B2: STM004 MAb (antibody, V domains shown)
VH: QVQLQQSDAELVKPGASVKISCKASGYTFSDHAIHWVKQRPEQGLEWIGCISPGSGDITYNEKFKGKATLTADKSSSTAYMQLNSLTSEDSAVYFCKRWGLDYWGQGTTLTVSS
VL: DIVLTQSPASLAVSLGQRATISCRASESVEFYGTTLMQWYQQKPGQPPRLLIYAASNVESGVPARFSGSGSGTDFSLNIHPVEDDDIAMYFCQQSRKVPYTFGGGTKLEIK
B3: STM073 MAb (antibody, V domains shown)
VH: EVQLVESGGALVKPGGSLKLSCAASGFTFSNSAMSWVRQTPEKRLEWVATISSAGSYTYYPDSVKGRFTISRDNAKNTLYLQMSSLRSEDTALYYCTRHYDYYFDYWGQGATLTVSS
VL: QIVLTQSPAIMSASPGEKVTLTCSASSSVSYMHWYQQKPGSSPRLVIYDTSNLASGVPVRFSGSGSGTSYSLTVSRMEAEDAATYYCQQWSDHPLTFGAGTKLELK
B4: STM108 MAb (antibody, V domains shown)
VH: EVMLVESGGALVKPGGSLKLSCAASGFSLSNYVMSWVRQTPEKRLEWVATISSGGRYIYYTDSVKGRFTISRDNARNTLYLQMSSLRSEDTAMYYCARDGSTLYYFDYWGQGTTLTVSS
VL: QTVLTQSPAIMSASPGEKVTMTCSASSSVDYMYWYQQKPGSSPRLLIYDTSNLASGVPVRFSGSGSGTSYSLTISRMEAEDAATYYCQQWSSSPPITFGTGTKVELK

Each binder was assayed against T2, human PD-L1 wild type (glycosylated), expressed on cells (human, UniProt Q9NZQ7 19-290, N-glycosylated at N35, N192, N200 and N219) (assay: flow cytometry on BT549 cells overexpressing PD-L1 WT (biotin labeled, mixed with 4NQ cells), FITC secondary antibody).
T2 construct: Endogenous on NCI-H226, A431 and MDA-MB231 cells and transfected into 4T1 cells in the functional assays; In the Western blots the protein was in cell lysate; also called PD-L1 WT; WT PD-L1
T2 sequence (Q9NZQ7 19-290): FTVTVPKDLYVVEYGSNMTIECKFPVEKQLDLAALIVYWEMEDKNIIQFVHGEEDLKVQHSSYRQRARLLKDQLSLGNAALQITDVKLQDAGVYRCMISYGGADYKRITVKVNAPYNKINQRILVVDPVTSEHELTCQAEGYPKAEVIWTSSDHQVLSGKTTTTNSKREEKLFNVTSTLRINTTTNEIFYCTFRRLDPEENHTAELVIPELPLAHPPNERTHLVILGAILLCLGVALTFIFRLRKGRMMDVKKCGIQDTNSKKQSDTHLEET

First: B1
Second: B2
The MFI of the first is higher: 51.1 for the first, 42.5 for the second.

First: B3
Second: B4
The MFI of the first is lower: 63.9 for the first, 117 for the second.

Target: T1, human PD-L1 4NQ …
Test: flow cytometry on BT549 cells overexpressing PD-L1 4NQ (mixed with WT cells), FITC secondary antibody

Compared with B1, B2 is lower in MFI: 21.3 for the first, 8.7 for the second.

Compared with B3, B4 is higher in MFI: 12.2 for the first, 27.6 for the second.
